Reference: patent US20100210517A1

Legend:
LRP2 CR89 Y1042W (human) = LRP2 CR89 Y1042W (human) (UniProt P98164); experiment: solid-phase assay; OD at the highest ligand concentration as percent of the highest OD of all ligands
[1] = target: recombinant human LRP1 ligand binding cluster II (amino acids 786-1165, C-terminal Fc) (human); experiment: inhibitor pre-incubated with coated LRP1 cluster II-Fc, washed, then RAP d3 added; inhibition of RAP d3 binding
[2] = target: recombinant human LRP1 ligand binding cluster II (amino acids 786-1165, C-terminal Fc) (human); experiment: competition ELISA, inhibition of RAP d3 (2 nM) binding to coated LRP1 cluster II-Fc

Sequence of mature human RAP (full-length) (P30533 35-357): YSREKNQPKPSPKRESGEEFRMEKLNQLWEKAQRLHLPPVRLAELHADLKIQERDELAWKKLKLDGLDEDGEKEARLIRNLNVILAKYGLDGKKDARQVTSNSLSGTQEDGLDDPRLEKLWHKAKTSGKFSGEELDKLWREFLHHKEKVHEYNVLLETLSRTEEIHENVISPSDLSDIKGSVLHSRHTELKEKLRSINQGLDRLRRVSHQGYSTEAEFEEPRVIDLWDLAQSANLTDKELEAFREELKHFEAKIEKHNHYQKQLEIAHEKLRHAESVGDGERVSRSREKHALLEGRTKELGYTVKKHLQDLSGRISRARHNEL
Sequence of recombinant human LRP1 ligand binding cluster II (amino acids 786-1165, C-terminal Fc) (human) (Q07954 786-1165): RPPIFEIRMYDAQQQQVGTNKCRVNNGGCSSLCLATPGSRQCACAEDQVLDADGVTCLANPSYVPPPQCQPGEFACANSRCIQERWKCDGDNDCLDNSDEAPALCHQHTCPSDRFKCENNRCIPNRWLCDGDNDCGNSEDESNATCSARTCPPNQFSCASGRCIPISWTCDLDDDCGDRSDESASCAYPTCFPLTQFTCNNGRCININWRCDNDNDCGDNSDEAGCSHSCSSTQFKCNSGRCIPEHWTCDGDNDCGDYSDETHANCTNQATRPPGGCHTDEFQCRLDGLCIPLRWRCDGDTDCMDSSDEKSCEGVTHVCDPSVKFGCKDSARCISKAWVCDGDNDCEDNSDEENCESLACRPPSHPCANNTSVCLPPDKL
Sequence of LRP2 CR89 Y1042W (human) (P98164 1025-1102 Y1043W limits assumed): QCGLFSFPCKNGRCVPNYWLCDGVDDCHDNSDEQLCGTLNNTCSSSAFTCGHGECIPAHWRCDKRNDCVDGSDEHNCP
Sequence of RAP d3 (wild-type domain 3 of human RAP, amino acids 201-319 of mature RAP) (P30533 235-353 A264E): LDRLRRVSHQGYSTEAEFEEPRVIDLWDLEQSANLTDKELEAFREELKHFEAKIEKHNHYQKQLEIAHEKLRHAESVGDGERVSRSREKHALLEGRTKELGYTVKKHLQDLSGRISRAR

Substance	% max bind (LRP2 CR89 Y1042W (human))	EC50 [1]	EC50 [2]	fold better EC50 than monomeric mRAPc peptide [2]
RAP d3 (wild-type domain 3 of human RAP, amino acids 201-319 of mature RAP) (from UniProt P30533 235-353) (ligand)	9%			
mature human RAP (full-length) (from UniProt P30533 35-357) (ligand)		0.3 nM	0.5 nM	64 fold
